Measured values taken from patent US20220009987A9, “HUMAN RESISTIN COMPOSITIONS AND METHODS OF TREATING TLR4-MEDIATED DISEASE AND INFECTION” (THE REGENTS OF THE UNIVERSITY OF CALIFORNIA, priority 2017, published 2022).

Molecular target: human CAP1 (Homo sapiens, UniProt Q01518)
Test: Pull-down assay with His-tagged human CAP1
Type: binding
Settings: nickel-NTA agarose beads, anti-hRetn blot
Experimental: Pull-down Assay. 1 μg/ml protein His-tagged MBP, human TLR4 and human CAP1 were added to nickel-nitrilotriacetic acid-agarose beads (Invitrogen) in binding buffer (50 mM NaH2PO4, 500 mM NaCl, 10 mM Imidazole, pH 8.0) and mixed for 1 hour at 4° C., followed by washing and 1 h incubation at 4° C. with hRetn (E. coli-derived, Peprotech or 293T cell-derived, LifeSpan Biosciences) in binding buffer. Beads were washed in wash buffer (50 mM NaH2PO4, 500 mM NaCl, 20 mM Imidazole, pH 8.0), and complex protein eluted with elution buffer (50 mM NaH2PO4, 500 mM NaCl, 250 mM Imidazole, pH 6.0). His-MBP, His-TLR4 and His-CAP1 were detected by anti-His antibody (Abcam), and hRetn was detected by anti-hRetn antibody (donated by Mitchell Lazar) by Western Blot. For the N-peptide binding experiment, 1 μg/ml His-tagged human TLR4 with 500 ng/ml N-peptide or 10% TFE control was added to the beads in binding buffer and mixed for 30 min at 4° C., followed by co-immunoprecipitation using 1 μg/ml Flag-hRetn (LifeSpan Biosciences), anti-His or anti-Flag (Sigma).

Sequence of human CAP1 (Q01518 whole entry): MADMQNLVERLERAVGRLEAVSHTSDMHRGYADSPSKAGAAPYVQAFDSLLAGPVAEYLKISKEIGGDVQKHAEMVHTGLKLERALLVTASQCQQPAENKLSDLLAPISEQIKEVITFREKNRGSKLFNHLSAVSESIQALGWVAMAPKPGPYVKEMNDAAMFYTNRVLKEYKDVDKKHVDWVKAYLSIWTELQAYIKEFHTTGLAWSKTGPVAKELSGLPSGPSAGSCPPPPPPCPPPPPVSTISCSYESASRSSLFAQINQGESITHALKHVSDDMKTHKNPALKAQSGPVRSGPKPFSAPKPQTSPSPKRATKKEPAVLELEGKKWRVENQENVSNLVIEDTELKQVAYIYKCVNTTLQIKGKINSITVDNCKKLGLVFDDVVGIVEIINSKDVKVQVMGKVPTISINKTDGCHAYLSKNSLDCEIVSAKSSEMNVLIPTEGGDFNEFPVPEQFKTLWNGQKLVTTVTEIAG

B1: hRetn: human resistin protein (hRetn) having an amino acid sequence of SEQ ID NO: 1; recombinant, E. coli-derived or 293T cell-derived (protein, listed as Homo sapiens)
chain: MKALCLLLLPVLGLLVSSKTLCSMEEAINERIQEVAGSLIFRAISSIGLECQSVTSRGDLATCPRGFAVTGCTCGSACGSWDVRAETTCHCQCAGMDWTGARCCRVQP
Question: For B1, which “hRetn in pull-down elution with his-CAP1 (Western blot)” value is on record?
Answer: not his-CAP1
